According to US20210253639A1 (REGENTS OF THE UNIVERSITY OF MICHIGAN, published 2021):
Blank lines part the entries; values can stand above or below the binder they belong to. Ends that are not written are not given here. E3 = triethyleneglycol (PEG3) linker; Cy5.5 = cyanine 5.5 fluorophore

Legend:
[1] = biological target: T1, epidermal growth factor receptor (EGFR) (human, UniProt P00533 25-1210); assay: flow cytometry on OE33 cells (carry EGFR and ErbB2), apparent dissociation constant
T1 construct: whole, on cells; Endogenous receptor on human cancer cell lines or xenograft tumour cells; also called ErbB-1; HER1

[2] = biological target: T2, epidermal receptor growth factor 2 (ErbB2) (human, UniProt P04626 23-1255); assay: as above
T2 construct: whole, on cells; Receptor on human cancer cell lines or xenograft tumour cells; also called HER2; HER2/neu

[3] = biological target: EGFR and ErbB2 together on the surface of cells that express both (OE33, SKBr3) (human) (UniProt P00533); assay: flow cytometry on OE33 cells, apparent dissociation constant
[4] = biological target: EGFR and ErbB2 together on the surface of cells that express both (OE33, SKBr3) (human) (UniProt P00533); assay: flow cytometry on OE33 cells, against QRH*-Cy5.5 and KSP*-Cy5.5
[5] = biological target: EGFR and ErbB2 together on the surface of cells that express both (OE33, SKBr3) (human) (UniProt P00533); assay: confocal microscopy on OE33 cells, against QRH*-Cy5.5 and KSP*-Cy5.5
[6] = biological target: EGFR and ErbB2 together on the surface of cells that express both (OE33, SKBr3) (human) (UniProt P00533); assay: flow cytometry time course on OE33 cells, 1 µM peptide, first-order fit
[7] = biological target: T2, epidermal receptor growth factor 2 …; assay: confocal microscopy of FITC-labeled peptides on Flo1-HER2 cells
Experimental: A FITC label was attached to each peptide, and binding to Flo1-HER2 and QhTERT cells (control) was imaged using confocal microscopy. […] KSPNPRF (SEQ ID NO: 2) was selected based on the highest mean fluorescence intensity with binding to Flo1-HER2. From the model, this peptide was determined to bind to HER2 domain 3. The peptide was then labeled for deep tissue imaging with a Cy5.5 fluorophore via a GGGSK (SEQ ID NO: 3) linker on the C-terminus, hereafter KSP*-Cy5.5. Cy5.5 was chosen for high quantum yield and photostability. The linker prevents steric hindrance by spatially separating the fluorophore from the peptide. A scrambled sequence PPSNFKR (SEQ ID NO: 4) was developed for use as control by altering the conformationally rigid spacer PNP and moving both hydrophobic and hydrophilic amino acids at the C-terminus. This control peptide also was linked to Cy5.5 via GGGSK (SEQ ID NO: 3), hereafter PPS*-Cy5.5. […] The fluorescence emission peak occurs at 708 nm in the NIR spectrum.

B2: KSP*-Cy5.5 (peptide)
peptide: KSPNPRFGGGSK(Cy5.5)-NH2
notes: also called KSP*-GGGSK-Cy5.5; ErbB2 monomer peptide
- Kd [2]: 54 nM

Binder: KSPNPRF (also: FITC label, attachment not given here) [KSPNPRF with a FITC label]
- binding result [7]: binds

Further lines, results first:

- Kd [1]: 98 nM
B1: QRH*-Cy5.5 (peptide)
peptide: QRHKPREGGGSK(Cy5.5)-NH2
notes: also called QRH*-GGGSK-Cy5.5; EGFR monomer peptide

- Kd [3]: 23 nM
- fold improved binding affinity compared with either monomer alone [4]: 2 fold
- fold greater fluorescence intensity compared with either monomer alone [5]: 3 fold
- apparent association time constant Ka [6]: 0.22 min⁻¹
- association time (printed in brackets after Ka) [6]: 4.5 min
B3: QRH*-KSP*-E3-Cy5.5 (peptide)
peptide 1: QRHKPRE-E3
peptide 2: KSPNPRF-E3
modifications: not fully specified (bridges); also: heterodimer: both C-termini joined via E3 to alpha and epsilon amines of a Lys, followed by Lys carrying Cy5.5
